The results in this text go back to PMC4432619.

In test [1] the target is FMNL1N (FMNL1 2–385, GBD–FH3) (human) (UniProt O95466). Nature of the test: ITC; GppNHp-loaded GTPase at 500 μM injected from the syringe into 50 μM FMNL in the cell; 20 mM Tris/HCl pH 8, 150 mM NaCl, 5 mM MgCl2, 1 mM DTE, 298 K; MicroCal iTC200. For orientation: In ITC the heat of successive injections is recorded.
In test [2] the target is FMNL1NCC (FMNL1 1–458, GBD-FH3-CC) (human) (UniProt O95466). The description is as above.
Target sequence in this assay (O95466 1-458): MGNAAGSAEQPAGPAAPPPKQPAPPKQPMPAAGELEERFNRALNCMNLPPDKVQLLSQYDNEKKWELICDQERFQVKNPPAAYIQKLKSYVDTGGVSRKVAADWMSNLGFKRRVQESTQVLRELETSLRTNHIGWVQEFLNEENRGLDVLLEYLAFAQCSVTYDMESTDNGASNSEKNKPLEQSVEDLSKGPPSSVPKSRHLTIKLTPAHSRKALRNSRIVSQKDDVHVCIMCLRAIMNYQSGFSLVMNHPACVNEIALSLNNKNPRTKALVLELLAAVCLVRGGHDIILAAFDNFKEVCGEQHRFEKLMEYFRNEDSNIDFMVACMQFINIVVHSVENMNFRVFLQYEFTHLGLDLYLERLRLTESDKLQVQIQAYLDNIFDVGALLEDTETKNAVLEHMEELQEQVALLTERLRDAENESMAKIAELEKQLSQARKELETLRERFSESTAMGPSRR
Test [3] deals with FMNL2N(S171DD) (residues 1–379) (human) (UniProt Q96PY5). Described as above.
In test [4] the target is FMNL2 1–489 (N-terminal FMNL2 construct including the coiled coil domain) (human) (UniProt Q96PY5). Briefly: SEC; analytical gel filtration, Superdex S200 (10/300 GL), typically 100 μg of each protein, 20 mM Tris/HCl pH 8.0, 150 mM NaCl, 1 mM DTE (2.5 mM MgCl2 with Rho GTPases), 0.5 ml/min, 293 K. Background: In gel filtration, larger molecules generally elute earlier.
The target of test [5] is FMNL1NCC (FMNL1 1–458, GBD-FH3-CC) (human) (UniProt O95466). The description is as above.

FMNL1N (FMNL1 2–385, GBD–FH3) (human), sequence (O95466 2-385): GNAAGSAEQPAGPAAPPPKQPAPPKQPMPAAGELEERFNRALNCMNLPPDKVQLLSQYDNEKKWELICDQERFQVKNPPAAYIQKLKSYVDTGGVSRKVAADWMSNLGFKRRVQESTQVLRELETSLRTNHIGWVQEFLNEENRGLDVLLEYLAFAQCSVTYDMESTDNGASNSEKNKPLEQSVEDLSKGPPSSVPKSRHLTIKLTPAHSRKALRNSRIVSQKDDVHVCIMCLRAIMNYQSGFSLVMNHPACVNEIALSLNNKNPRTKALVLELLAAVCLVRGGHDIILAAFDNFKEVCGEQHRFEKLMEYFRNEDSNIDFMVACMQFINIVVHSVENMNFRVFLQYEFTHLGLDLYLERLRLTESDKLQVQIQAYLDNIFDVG
Cdc42 (1–179), sequence (P60953 1-179): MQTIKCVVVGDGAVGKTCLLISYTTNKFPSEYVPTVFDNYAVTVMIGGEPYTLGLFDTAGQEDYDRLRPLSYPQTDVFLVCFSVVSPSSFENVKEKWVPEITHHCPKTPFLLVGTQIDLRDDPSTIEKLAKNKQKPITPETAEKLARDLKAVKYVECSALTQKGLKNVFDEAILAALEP
FMNL1NCC (FMNL1 1–458, GBD-FH3-CC), sequence (O95466 1-458): as the sequence (O95466 1-458) above

In general, Kd refers to the concentration at which binding is half-saturated. Lower therefore signals a tighter complex. Usually stoichiometry N stands for the number of molecules, sites or subunits per partner or assembly. Turning to “Cdc42 (1–179) (from UniProt P60953 1-179) (domain or fragment)”, in test [1], the Kd was found to be 6130 nM, the dH is -5.08 kcal/mol and the stoichiometry N was found to be 0.28. In test [2], the Kd worked out at 2550 nM, the dH was -5.48 kcal/mol and the stoichiometry N came to 0.37. In test [3], this substance had a Kd of 790 nM, a dH of -4.06 kcal/mol and a stoichiometry N of 1.05.

In test [4], “FMNL2 1–489 (N-terminal FMNL2 construct including the coiled coil domain) (from UniProt Q96PY5 1-489) (domain or fragment)” displayed a stoichiometry N of 2.

In test [5], “FMNL1NCC (FMNL1 1–458, GBD-FH3-CC) (from UniProt O95466 1-458) (domain or fragment)” showed a stoichiometry N of 2.
